From paper PMC11628620, “A core network in the SARS-CoV-2 nucleocapsid NTD mediates structural integrity and selective RNA-binding”

What was measured:
[1] = molecular target: T1, SARS-CoV-2 nucleocapsid NTD WT (SARS-CoV-2 (Wuhan-Hu-1), UniProt P0DTC9 44-180); experiment: EMSA; details: protein: recombinant; tags: His6-Trx cleaved by TEV; one extra N-terminal G; hairpin with 22 nt 3' extension
[2] = molecular target: SARS-CoV-2 nucleocapsid NTD WT (SARS-CoV-2 (Wuhan-Hu-1), UniProt P0DTC9 44-180); experiment: MST; details: protein: recombinant; tags: His6-Trx cleaved by TEV; one extra N-terminal G; label: 3'-Cy5; hairpin
[3] = molecular target: T1, SARS-CoV-2 nucleocapsid NTD WT; experiment: MST; details: protein: recombinant; tags: His6-Trx cleaved by TEV; one extra N-terminal G; label: 3'-Cy5; transiently folds as stem-loop

B1: SL4ext (structured_RNA)
RNA: GGUCUGUGUGGCUGUCACUCGGCUGCAUGCUUAGUGCACUCACGCAGUAUAAUUAAUAACUAAUUACUG
binding result [1]: binds

GGGUGUGGCUGUCACUCGGCUGCAUGCUUAGUGCACUCACGCCC (structured_RNA) [SL4 (3'-Cy5)]
Kd [2]: 14.1 ± 2.23 µM

GGAUAAUUAAUAACUAAUUACU (ssRNA) [Ext (3'-Cy5)]
Kd [3]: 0.334 ± 0.047 µM
